Experimental data taken from patent publication US20050064507A1, “Determining kinase specificity” (priority 2003, published 2005).

How the values were obtained:
[1] = target: T1, AKT1 (Homo sapiens, UniProt P31749); experiment: In vitro kinase assay: peptide phosphorylation by AKT1; type: biochemical; details: normalized to best substrate
T1 construct: purchased Panvera
Description: (§1) Catalytically active preparations of the kinases of interest were either purchased or prepared. Purchased and tested active kinase preparations including the following: PKC-alpha, PKC-delta, PKC-epsilon, PKC-zeta, PKC-mu, PKA, PKG from Calbiochem, ROK alpha/ROCK-II, active from Upstate Biotechnology, and AKT1 from Panvera.
(§2) The conditions of the kinase assay and the amount of active kinase used varied with the kinase and with the accuracy needed. For a typical experiment, 5-20 ng of kinase was used per well and each peptide pool was assayed in duplicate wells. Note that the absolute amount of kinase used was not usually a critical parameter, because the desired information related to specificity of the kinase not its absolute activity, and robustness of the assay depends on comparisons of the same amount of kinase on different peptides. The combination of kinase concentration and assay duration was modified to assure that the stoichiometry of peptide phosphorylation never exceeded 5%. The choice of kinase buffer depended on the kinase being analyzed. For studies of PKC, 100 mM HEPES, 0.05% Triton-X100, 1 mM CaCl2, 20 mM MgCl2, 0.2 mg/ml phosphatidyl serine (Avanti Polar Lipids), PMA 100 ng/ml was typically used. The lipid stock was prepared by transferring 3 mg phosphatidyl serine into iced mixture of 450 μl water plus 50 μl of 10% Triton-X100, sonicating 10 times on ice for 1 sec each.
(§3) The kinase reaction mixture was assembled by sequential addition to a tube held on ice of: 5 μl peptide (100 μM for final concentration of 10 μM), 15 μl of kinase (typically 5 ng/well, in appropriate kinase buffer), 30 μl of ATP (1 uCi/well of ^32P-gamma ATP in a stock of 167 μM cold ATP in the kinase buffer; for final concentration for 100 μM ATP). The mixture was rapidly warmed to desired reaction temperature (30° C. for PKC) and incubated for the desired duration (usually 10 minutes). The kinase assay was terminated by transfer to 4° C. water batch, and rapid addition of an equal volume (50 μl) of stop solution [0.1M ATP+0.1M EDTA in water, pH 8].
(§4) The peptides were then captured from the reaction mixture by transfer to a Reacti-Bind Streptavidin High Binding Capacity Coated Plates (HBC) (Pierce Biotechnology) as follows. The HBC plates were pre-rinsed three times with PBS/Tween PBS/Tween20 0.05% (PBS/Tween). Part of all of the reaction mixture was then transferred wells of a HBC plate pre-filled with 90 μl of phosphate-buffered saline (PBS); typically each aliquots of each phosphorylation reaction were transferred to duplicate HBC plates to assure accuracy by additional replication
(§5) For kinase assays done at the standard peptide concentration of 10 μM, the peptide concentration in the reaction mixture becomes 5 μM after addition of the stop solution; consequently 10 μl of the reaction (50 pMoles of peptide) was transferred to the HBC plate. More generally, the amount of reaction mixture transferred was estimated to be about 50 pMoles of peptide. […] The HBC plates were incubated for 0.5 to 1.5 hr at room temperature for complete binding of biotinylated peptides to plate-bound streptavidin. The HBC plates were then washed extensively with PBS/Tween. Five washes were done routinely and additional wash steps were added if the wash solution removed from the plate had measurable radioactivity as detected using a Geiger counter. This step is essential to obtaining a good the signal to noise ratio because the fraction of radioactivity incorporated in the peptides was a tiny fraction of the total in the reaction mixture. The wells were air-dried. A volume of 40-50 μl of microScint-20 (Packard Instruments) was added to each well. The plates were covered with stick-on film sheet. Radioactive emissions were measured in a TopCount NXT Microplate Scintillation and Luminescence Counter (Packard Instruments). Typically samples were counted for 5 minutes (or more) to improve the signal to noise ratio when counts were low. […]

[2] = target: T2, PKA (Homo sapiens, UniProt P17612); experiment: In vitro kinase assay: peptide phosphorylation by PKA; type: biochemical; details: normalized to best substrate
T2 construct: purchased Calbiochem
Description: as §1, §2, §3, §4, §5

[3] = target: T3, PKC-zeta (Homo sapiens, UniProt Q05513); experiment: In vitro kinase assay: peptide phosphorylation by PKC-zeta; type: biochemical; details: for PKC-zeta phosphorylation: normalized to best substrate
T3 construct: purchased Calbiochem
T3 sequence (Q05513 1-592): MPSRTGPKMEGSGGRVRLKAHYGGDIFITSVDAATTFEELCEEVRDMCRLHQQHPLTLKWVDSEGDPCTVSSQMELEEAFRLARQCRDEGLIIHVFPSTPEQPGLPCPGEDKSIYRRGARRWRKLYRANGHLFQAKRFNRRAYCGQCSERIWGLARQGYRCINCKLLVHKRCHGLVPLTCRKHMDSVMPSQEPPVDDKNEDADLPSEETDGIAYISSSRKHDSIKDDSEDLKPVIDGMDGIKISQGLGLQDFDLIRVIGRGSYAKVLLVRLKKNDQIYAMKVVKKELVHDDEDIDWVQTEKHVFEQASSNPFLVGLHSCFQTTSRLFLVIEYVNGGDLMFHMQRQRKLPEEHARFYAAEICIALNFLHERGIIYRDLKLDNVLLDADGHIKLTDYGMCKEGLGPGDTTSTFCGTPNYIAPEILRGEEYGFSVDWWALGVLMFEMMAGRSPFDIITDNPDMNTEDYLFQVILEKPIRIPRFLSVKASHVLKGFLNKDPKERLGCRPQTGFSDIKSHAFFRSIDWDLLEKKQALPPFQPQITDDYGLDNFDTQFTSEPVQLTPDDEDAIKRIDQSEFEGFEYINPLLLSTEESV
Description: as §1, §2, §3, §4, §5

[4] = system: pPKC Ab; experiment: pPKC Ab binding to peptides phosphorylated in vitro by PKC-theta; details: for pPKC Ab Signal on peptide after exposure to PKC-theta phosphorylation: 30 minutes at 30° C. then overnight at 4° C.; for pPKC Ab Signal amount dependent on PKC phosphorylation: difference after minus without exposure
Description: Synthetic peptides chosen from those shown in Table 4 were subjected to phosphorylation by PKC-theta, Assay conditions were similar to those described herein, except that the phosphorylation reaction was for 30 minutes at 30° C. and then overnight at 4° C. The reaction mixture was applied to HB avidin-coated plates, the plates washed, and then pPKC Ab binding assayed.

T1 sequence (P31749 whole entry, species assumed): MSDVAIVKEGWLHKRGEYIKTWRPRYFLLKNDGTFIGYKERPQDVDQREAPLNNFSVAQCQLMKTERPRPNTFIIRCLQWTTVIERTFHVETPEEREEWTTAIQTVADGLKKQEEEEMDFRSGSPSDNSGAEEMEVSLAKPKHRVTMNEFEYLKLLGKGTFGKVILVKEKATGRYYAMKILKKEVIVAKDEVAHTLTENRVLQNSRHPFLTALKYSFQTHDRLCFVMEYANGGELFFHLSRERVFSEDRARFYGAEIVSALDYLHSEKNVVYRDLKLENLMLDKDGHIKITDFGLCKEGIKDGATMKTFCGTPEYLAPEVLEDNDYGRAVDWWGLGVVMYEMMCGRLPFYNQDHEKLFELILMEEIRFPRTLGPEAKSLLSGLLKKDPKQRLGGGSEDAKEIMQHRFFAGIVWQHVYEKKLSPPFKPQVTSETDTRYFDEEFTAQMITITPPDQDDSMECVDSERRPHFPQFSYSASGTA

Substance	AKT1 phosphorylation [1] [%]	PKA phosphorylation [2] [%]	PKC-zeta phosphorylation [3] [%]	pPKC Ab Signal on peptide without exposure to PKC-theta [4]	pPKC Ab Signal on peptide after exposure to PKC-theta phosphorylation [4]	pPKC Ab Signal amount dependent on PKC phosphorylation [4]	phosphorylation by PKC zeta ([3]; peptide concentration 1 uM)	phosphorylation by PKC zeta ([3]; peptide concentration 10 uM)
76 (HVRRRRGTFKRSKLRARD) [compound 76]	100	69	41	0.07	1.02	0.95	–	–
80 (KKKKKRFSFKKSFKL) [compound 80]	6	3	16	–	–	–	–	–
82 (PRLIRRGSKKRPAR) [compound 82]	9	10	38	–	–	–	–	–
83 (RKIPKRPGSVHRTPSRQ) [compound 83]	6	2	4	–	–	–	–	–
84 (QKKSRLRRRASQLKI) [compound 84]	10	63	19	–	–	–	–	–
85 (RFARKGSLRQKNV) [compound 85]	10	81	56	–	–	–	–	–
86 (RQRKRKLSFRRRTDKD) [compound 86]	39	87	28	–	–	–	–	–
89 (EYLERRASRRRAV) [compound 89]	1	4	14	–	–	–	–	–
90 (AQIVKRASLKRGKQ) [compound 90]	3	3	5	–	–	–	–	–
92 (DGQKRKKSLRKKLD) [compound 92]	2	18	2	–	–	–	–	–
93 (AARKKRISVKKKQEQ) [compound 93]	7	1	1	–	–	–	–	–
94 (KLAVGRHSFSRRSGV) [compound 94]	9	5	10	–	–	–	–	–
95 (KKKFRTPSFLKKSKK) [compound 95]	9	2	5	–	–	–	–	–
96 (RGFLRSASLGRRASFHLE) [compound 96]	32	86	22	–	–	–	–	–
99 (AGWRKKTSFRKPKED) [compound 99]	6	1	10	–	–	–	–	–
100 (WKGKRRSKARKKRK) [compound 100]	3	2	8	–	–	–	–	–
101 (GAPPRRSSIRNAH) [compound 101]	12	100	3	–	–	–	–	–
102 (AGSFKRNSIKKIV) [compound 102]	6	5	2	–	–	–	–	–
103 (LLKKRDSFRTPRDSKLE) [compound 103]	7	3	8	–	–	–	–	–
104 (EKIKRSSLKKVDSLKK) [compound 104]	2	1	3	–	–	–	–	–
105 (ALRRPSLRREADD) [compound 105]	12	84	4	–	–	–	–	–
106 (EILSRRPSYRKILND) [compound 106]	12	30	15	–	–	–	–	–
107 (QKRHARVTVKYDRRE) [compound 107]	3	2	1	–	–	–	–	–
108 (KATTKKRTLRKNDRK) [compound 108]	1	0	1	–	–	–	–	–
109 (KEVVRTDSLKGRRGR) [compound 109]	2	1	2	–	–	–	–	–
110 (EGGDRRASGRRK) [compound 110]	1	1	3	–	–	–	–	–
111 (KKKRFSFKKSFKLSGFSFKK) [compound 111]	3	3	9	–	–	–	–	–
112 (KRPGKKGSNKRPGKR) [compound 112]	3	0	1	–	–	–	–	–
113 (GENVLKKSMKSRVKG) [compound 113]	9	0	1	–	–	–	–	–
121 (LRRRSLRRSNSISKSPGP) [compound 121]	–	–	–	0.02	1.13	1.11	60	56
